Reference: PMC10904058 (2024)

Target: FASN of the SPR analysis (UniProt P49327 1-2511)
Assay: SPR

Kd: 17 nM
B1: TRIM56 of the SPR analysis (enzyme)
chain: MVSHGSSPSLLEALSSDFLACKICLEQLRAPKTLPCLHTYCQDCLAQLADGGRVRCPECRETVPVPPEGVASFKTNFFVNGLLDLVKARACGDLRAGKPACALCPLVGGTSTGGPATARCLDCADDLCQACADGHRCTRQTHTHRVVDLVGYRAGWYDEEARERQAAQCPQHPGEALRFLCQPCSQLLCRECRLDPHLDHPCLPLAEAVRARRPGLEGLLAGVDNNLVELEAARRVEKEALARLREQAARVGTQVEEAAEGVLRALLAQKQEVLGQLRAHVEAAEEAARERLAELEGREQVARAAAAFARRVLSLGREAEILSLEGAIAQRLRQLQGCPWAPGPAPCLLPQLELHPGLLDKNCHLLRLSFEEQQPQKDGGKDGAGTQGGEESQSRREDEPKTERQGGVQPQAGDGAQTPKEEKAQTTREEGAQTLEEDRAQTPHEDGGPQPHRGGRPNKKKKFKGRLKSISREPSPALGPNLDGSGLLPRPIFYCSFPTRMPGDKRSPRITGLCPFGPREILVADEQNRALKRFSLNGDYKGTVPVPEGCSPCSVAALQSAVAFSASARLYLINPNGEVQWRRALSLSQASHAVAALPSGDRVAVSVAGHVEVYNMEGSLATRFIPGGKASRGLRALVFLTTSPQGHFVGSDWQQNSVVICDGLGQVVGEYKGPGLHGCQPGSVSVDKKGYIFLTLREVNKVVILDPKGSLLGDFLTAYHGLEKPRVTTMVDGRYLVVSLSNGTIHIFRVRSPDS
